The text below walks through data of PMC3796367.

The target of experiment [1] is Pks4 SAT(C117A)-KS-MAT tridomain. In words: ITC. In general terms: In ITC the heat of successive injections is recorded.
For experiment [2] the target is unchanged. As to the kind of experiment: cross-linking.

In turn, “Pks4 apo-ACP (stand-alone ACP domain of Pks4) (domain or fragment)” showed a Kd in experiment [1] of 15 µM.

On to “Pks4 ACP loaded with a pantetheine crosslinker (crypto-ACP) (domain or fragment)”, for which the stoichiometry N (ACP monomers per S0KM dimer) in experiment [2] was found to be 2.

“PksA apo-ACP (stand-alone ACP domain of PksA) (domain or fragment)” showed a Kd in experiment [1] of 30 µM.

One may read the Kd as the equilibrium constant for the complex coming apart. Read a high Kd as a looser complex.
